In experiment [1] the target is Substance P (FAM-SP) (Homo sapiens), P20366.
Experiment [2] shares this target. This is another data set of the same source.

Read-outs that look alike come from different tables or passages of the source.

Substance P (FAM-SP) (Homo sapiens), P20366, sequence (P20366 whole entry, looked up): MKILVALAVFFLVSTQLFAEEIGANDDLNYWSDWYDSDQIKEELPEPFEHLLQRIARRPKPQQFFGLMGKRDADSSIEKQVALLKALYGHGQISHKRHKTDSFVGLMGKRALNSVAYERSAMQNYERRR

B1: Neurokinin 1 receptor (NK1R), P25103 (protein)
chain: MDNVLPVDSDLSPNISTNTSEPNQFVQPAWQIVLWAAAYTVIVVTSVVGNVVVMWIILAHKRMRTVTNYFLVNLAFAEASMAAFNTVVNFTYAVHNEWYYGLFYCKFHNFFPIAAVFASIYSMTAVAFDRYMAIIHPLQPRLSATATKVVICVIWVLALLLAFPQGYYSTTETMPSRVVCMIEWPEHPNKIYEKVYHICVTVLIYFLPLLVIGYAYTVVGITLWASEIPGDSSDRYHEQVSAKRKVVKMMIVVVCTFAICWLPFHIFFLLPYINPDLYLKKFIQQVYLAIMWLAMSSTMYNPIIYCCLNDRFRLGFKHAFRCCPFISAGDYEGLEMKSTRYLQTQGSVYKVSRLETTISTVVGAHEEEPEDGPKATPSSLDLTSNCSSRSDSKTMTESFSFSSNVLS
Consider B1, for which the Kd – broadly, the equilibrium constant for the complex coming apart – in experiment [1] is 83 nM; in experiment [2] it was 34 nM.

For the origin of these results see publication PMC3460959.
